Measured values as given in US20240279290A1 (Molecular Partners, published 2024).

Target: T1, cynomolgus serum albumin (cynomolgus)
T1 construct: also called CSA
Test: SPR (ProteOn XPR36), Protein #5 captured on hFAP-coated GLC chip, CSA as analyte, 1:1 Langmuir fit
Protocol: ProteOn setup for Protein #5 binding to serum albumin of different species. First, human FAP (hFAP) was coated on a GLC chip (BioRad) to a level of 700 RU before 50 nM Protein #5 was immobilized as analyle for 120 s (dissociation of 0 s) at constant flow of 100 μl/min to a level of 120 RU. The binding of the serum albumin to Protein #5 was measured by injecting human serum albumin (HSA), cynomolgus serum albumin (CSA) and mouse serum albumin (MSA) in a serial dilution of 100, 33, 11 and 3.7 nM with an association of 120 s and a dissociation of 600 s at a constant flow of 100 μl/min. HSA, CSA and MSA binding was measured serially and the hFAP/Protein #5 complex was regenerated each time with 10 mM glycine pH2 for 18 s at a flow of 100 μl/min. Thus, Protein #5 had to be re-immobilized on hFAP after each regeneration step. […] The kinetic was calculated on the first 300 s of dissociation.

T1 sequence (A2V9Z4 25-608): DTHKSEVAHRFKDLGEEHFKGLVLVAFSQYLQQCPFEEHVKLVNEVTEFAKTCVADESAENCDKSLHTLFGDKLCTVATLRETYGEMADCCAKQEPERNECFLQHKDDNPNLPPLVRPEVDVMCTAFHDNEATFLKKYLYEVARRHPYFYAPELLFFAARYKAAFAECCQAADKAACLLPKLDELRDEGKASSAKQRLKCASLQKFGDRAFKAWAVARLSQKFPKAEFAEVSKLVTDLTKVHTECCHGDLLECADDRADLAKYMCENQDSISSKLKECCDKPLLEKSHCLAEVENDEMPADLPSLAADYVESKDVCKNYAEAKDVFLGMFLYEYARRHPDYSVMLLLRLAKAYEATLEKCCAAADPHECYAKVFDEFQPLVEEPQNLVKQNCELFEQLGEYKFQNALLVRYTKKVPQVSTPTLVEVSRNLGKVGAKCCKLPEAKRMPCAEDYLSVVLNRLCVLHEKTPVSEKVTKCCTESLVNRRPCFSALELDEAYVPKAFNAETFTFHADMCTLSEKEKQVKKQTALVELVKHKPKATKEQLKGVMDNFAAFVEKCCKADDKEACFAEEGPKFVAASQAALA

B1: DARPin Protein #5 (designed binder)
chain: GSDLGKKLLEAARAGQDDEVRELLKAGADVNAKDYFSHTPLHLAARNGHLKIVEVLLKAGADVNAKDFAGKTPLHLAAADGHLEIVEVLLKAGADVNAQDIFGKTPADIAADAGHEDIAEVLQKAAGSPTPTPTTPTPTPTTPTPTPTGSDLGKKLLEAARAGQDDEVRILLAAGADVNAKDVLGWTPLHLAAFEGHLEIVEVLLKAGADVNAKDKKGWTPLQLAARTGHLEIVEVLLKAGADVNAKDHIGATPLHLAAWQGHPEIVEVLLKAGADVNAQDKSGKTPADLAADAGHEDIAEVLQKAAGSPTPTPTTPTPTPTTPTPTPTGSDLGKKLLQAARAGQLDEVRELLKAGADVNAKDTWGFTPLHIAAESGHLEIVEVLLKAGADVNAKDVQGRTPLHIAAHSGHLEIVEVLLKAGADVNAKDFRGWTPLHLAAWSGHLEIVEILLKAGADVNAQDKSGKTPADLAARAGHQDIAEVLQKAAGSPTPTPTTPTPTPTTPTPTPTGSDLGKKLLQAARAGQLDEVRELLKAGADVNAKDTWGFTPLHIAAESGHLEIVEVLLKAGADVNAKDVQGRTPLHIAAHSGHLEIVEVLLKAGADVNAKDFRGWTPLHLAAWSGHLEIVEILLKAGADVNAQDKSGKTPADLAARAGHQDIAEVLQKAA
notes: No tag is stated for this protein; also called SMA136; Molecule No. 1
B1 showed a Kd of 409 nM, a koff of 0.217 s⁻¹ and a kon of 532000 M⁻¹ s⁻¹.
